Test results published in patent publication US20250059273A1 (UNM RAINFOREST INNOVATIONS, published 2025).
Ends that are not written are not given here.

T1: human P2X4 peptide (human, UniProt Q99571 301-313)
T1 construct: range 301-313; The range 301-313 is stated for rat P2X4R, with the human peptide as its 'human form'; also called human Target P2X4R peptide; thirteen amino acid extracellular peptide fragment of human P2X4 receptor
T1 peptide (looked up): RDLAGNEQRTLIK

T2: rat P2X4R extracellular peptide (a.a. 301-313, C-RDLAGKEQRTLTK) (rat, not fully specified (N-terminus))
T2 construct: also called P2X4R peptide; rat P2X4 peptide
T2 peptide: RDLAGKEQRTLTK

T3: Hu CCK-B receptor protein (human, UniProt P32239 1-447, limits assumed)
T3 construct: also called human CCK-B receptor
T3 sequence (looked up): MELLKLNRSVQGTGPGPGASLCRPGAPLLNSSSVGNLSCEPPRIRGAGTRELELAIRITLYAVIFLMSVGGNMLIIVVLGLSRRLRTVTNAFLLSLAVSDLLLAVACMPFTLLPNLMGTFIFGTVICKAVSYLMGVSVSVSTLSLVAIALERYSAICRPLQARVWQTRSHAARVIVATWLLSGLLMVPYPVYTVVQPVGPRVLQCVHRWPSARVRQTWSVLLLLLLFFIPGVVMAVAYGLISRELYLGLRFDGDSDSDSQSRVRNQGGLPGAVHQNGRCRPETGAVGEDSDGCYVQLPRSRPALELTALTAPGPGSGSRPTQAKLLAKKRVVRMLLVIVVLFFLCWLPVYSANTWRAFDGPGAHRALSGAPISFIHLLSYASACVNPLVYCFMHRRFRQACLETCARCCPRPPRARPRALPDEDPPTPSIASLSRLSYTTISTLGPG


How the values were obtained:
human P2X4 peptide [1] = target: T1, human P2X4 peptide; experiment: indirect ELISA, wells coated with human P2X4 peptide, anti-His detection
[2] = target: T2, rat P2X4R extracellular peptide (a.a. …); experiment: indirect ELISA of purified scFv on rat P2X4 peptide, concentration not shown
human P2X4 peptide [3] = target: T1, human P2X4 peptide; experiment: indirect ELISA on human P2X4 peptide
[4] = target: T3, Hu CCK-B receptor protein; experiment: indirect ELISA on human CCK-B receptor protein, concentration not shown
[5] = target: T2, rat P2X4R extracellular peptide (a.a. …); experiment: indirect ELISA titration on P2X4R peptide; legend box headed 'APPARENT Kd (nM)'
[6] = target: human and mouse peptide targets; experiment: not stated (estimated affinity)

| Binder | Kd (human P2X4 peptide [1]) [nM] | binding result [2] | fold affinity enhancement over parental mscFv95 (human P2X4 peptide [3]) [fold] | fold affinity improvement over parental mscFv95 (human P2X4 peptide [3]) [fold] | binding result [4] | Kd [5] [nM] | Kd [6] [nM] |
| --- | --- | --- | --- | --- | --- | --- | --- |
| humanized hP2X4R scFv HC3-LC3 (scFv, HC-(G4S)3-LC with C-terminal His tag; also called hP2X4R HC3-LC3 scFv; HC3 LC3 hP2X4R scFv) scFv: MAEVQLVESGGGLVQPGGSLRLSCATSGFTFTDYYMHWVRQAPGKGLEWVGFIRNKANGYTTEYSASVKGRFTISRDNSKNTLYLQMNSLRAEDTAVYYCARWEGDLLYAMDYWGQGTLVTVSSGGGGSGGGGSGGGGSDIQMTQSPSSLSASVGDRVTITCRASQGISNYLNWYQQKPGKAPKLLIYYTSSLHSGVPSRFSGSGSGTDFTLTISSLQPEDFAYYYCQQYSKLPWTFGGGTKVEIKRAAALEHHHHHH | 2.3 | binds | > 50 | > 10 | no binding | – | – |
| humanized P2X4R scFv HC2-LC3 (scFv, HC-(G4S)3-LC with C-terminal His tag) scFv: MAQVQLQESGPGLVKPSQTLSLTCTTSGFTFTDYYMSWVRQAPGKGLEWIGFIRNKANGYTTEYSASVKGRFTISRDNSKNQFSLRLSSVTAADTAVYYCARWEGDLLYAMDYWGQGTTVTVSSGGGGSGGGGSGGGGSDIQMTQSPSSLSASVGDRVTITCRASQGISNYLNWYQQKPGKAPKLLIYYTSSLHSGVPSRFSGSGSGTDFTLTISSLQPEDFAYYYCQQYSKLPWTFGGGTKVEIKRAAALEHHHHHH | 29 | binds | – | – | no binding | – | – |
| P2X4-scFv12 (scFv) scFv: MADVKLQESGPGLVKPSQSLSLTCSVTGYSITSGYYWNWIRQFPGNKLEWMGYISYDGSNNYNPSLKNRISITRDTSKNQFFLKLNSVTTEDTATYYCARSDYDLYYYAMDYWGQGTSVTVSSAKTTPPSGGGGSGGGGSGGGGGSGGGGSDIVMTQSPATLSVTPGDRVSLSCRASQSISDYLHWYQQKSHESPRLLIKYASQSISGIPSRFSGSGSGSDFTLSINSVEPEDVGVYYCQNGHSFPLTFGSGTKLEIKRADAAALEHHHHHH | – | – | – | – | – | 177 | – |
| P2X4-scFv95 (parental murine anti-P2X4R scFv) (scFv, also called mscFv95; clone 95) scFv: MAEVKLVESGGGLVQPGGSLRLSCATSGFTFTDYYMSWVRQPPGKALEWLGFIRNKANGYTTEYSASVKGRFTISRDNSQSILYLQMNTLRAEDSATYYCARWEGDLLYAMDYWGQGTSVTVSSGGGGSGGGGSGGGGGSGGGGSDIQMTQTTSSLSASLGDRVTISCSASQGISNYLNWYQQKPDGTVKLLIYYTSSLHSGVPSRFSGSGSGTDYSLTISNLEPEDIATYYCQQYSKLPWTFGGGTKLEIKRADAAALEHHHHHH | 130 | – | – | – | no binding | 130 | 130 to 190 |
| humanized P2X4R scFv HC1-LC1 (scFv, HC-(G4S)3-LC with C-terminal His tag, expressed in E. coli) scFv: MAEVKLVESGGGLVQPGGSLRLSCATSGFTFTDYYMSWVRQPPGKALEWLGFIRNKANGYTTEYSASVKGRFTISRDNSQSILYLQMNTLRAEDSATYYCARWEGDLLYAMDYWGQGTSVTVSSGGGGSGGGGSGGGGSDIQMTQTTSSLSASLGDRVTISCSASQGISNYLNWYQQKPDGTVKLLIYYTSSLHSGVPSRFSGSGSGTDYSLTISNLEQEDIATYYCQQYSKLPWTFGGGTKLEIKRAAALEHHHHHH | 24 | binds | – | – | no binding | – | – |
| humanized P2X4R scFv HC3-LC1 (scFv, HC-(G4S)3-LC with C-terminal His tag, expressed in E. coli) scFv: MAEVQLVESGGGLVQPGGSLRLSCATSGFTFTDYYMHWVRQAPGKGLEWVGFIRNKANGYTTEYSASVKGRFTISRDNSKNTLYLQMNSLRAEDTAVYYCARWEGDLLYAMDYWGQGTLVTVSSGGGGSGGGGSGGGGSDIQMTQTTSSLSASLGDRVTISCSASQGISNYLNWYQQKPDGTVKLLIYYTSSLHSGVPSRFSGSGSGTDYSLTISNLEQEDIATYYCQQYSKLPWTFGGGTKLEIKRAAALEHHHHHH | 4.7 | binds | – | > 10 | no binding | – | – |
| P2X4-scFv103 (scFv) scFv: MAQVQLKESGAELVRSGASVKLSCTASGFNIKNTYMHWVKQRPEQGLEWIGRIDPASGNTKYAPKFQGKATITADTSSNTAYLQLSSLTSEDTAIYYCARFYDGYYWGQGTTLTVSSAKTTAPSGGGGSGGGGSGGGGSGGGGSAIMSASPGEKVTMTCSASSSVSYMHWYQQKSGTSPKRWIYDTSKLASGVPARFSGSGSGTSYSLTISRMEAEDAATYYCQQYSGYGTFGGGTKLEIKRADAAALEHHHHHH | – | – | – | – | – | 978 | – |
| humanized P2X4R scFv HC2-LC1 (scFv, HC-(G4S)3-LC with C-terminal His tag, expressed in E. coli) scFv: MAQVQLQESGPGLVKPSQTLSLTCTTSGFTFTDYYMSWVRQAPGKGLEWIGFIRNKANGYTTEYSASVKGRFTISRDNSKNQFSLRLSSVTAADTAVYYCARWEGDLLYAMDYWGQGTTVTVSSGGGGSGGGGSGGGGSDIQMTQTTSSLSASLGDRVTISCSASQGISNYLNWYQQKPDGTVKLLIYYTSSLHSGVPSRFSGSGSGTDYSLTISNLEQEDIATYYCQQYSKLPWTFGGGTKLEIKRAAALEHHHHHH | 12 | binds | – | > 10 | no binding | – | – |
